According to the nanobody polyreactivity screen of Harvey et al. (2022):

test: yeast display, Sf9 membrane polyspecificity reagent, FACS + sequencing; frameworks hold sequencing errors
How it was run: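 Galactose induction of a Saccharomyces cerevisiae BJ5465 synthetic nanobody display library ran 36–48 hours. The cells were then stained for 1 hour at 4 °C with 10% biotinylated, detergent-solubilized Sf9 membrane reagent, pulled down on streptavidin microbeads and FACS-sorted into low and high (top ~1%) gates on expression and reagent-binding fluorescence. Labels for polyreactivity follow the gate of origin.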

Sequence | polyreactivity (PSR sort gate)
QVQHVESGGGLVQAGGSLRLSCSASGITFGYYAMGWYRQAPGKERELVAAIRSSGGSTYYADSVKGRFTISRDNAKNTVYLQMKSLKPEDTAVYYCNARYRKSSRPGYEPFERYYWGQGTQVTVSS | high polyreactivity
QVQLVESGGGLVQAGGSLRLRCAASGLIFYVYAMGWYRQAPGKERELVAAISYRGGSTYADSVKGRFTISRDNAKNTVYLQMNSLKPEDTAVYYCAAQRWYVYGLKYHYGYWGQGTQVTVSS | high polyreactivity
QVQLVESGGGLVQAGGSLRLSCAASGRTFGYYAMGWYRKAPGKERELVAAISWRGTSTYYADSVKGRFTISRDNAKNTVYLQMNSLKPEDTAVYYCAVGRTVAHRFIAGDYWGQGTQVTVSS | high polyreactivity
QVQLVESGGGLVQAGGSLRLSCAASGSIFSIYAMGWYRQAPGKERELVAAISWNGGSTYYADSVKGRFTISRDNAKNTVYLQMNSLKPEDTAVYYCAVDEGPTKVRFGYWGQGTQVTVSS | high polyreactivity
QVQLVESGGVLVQAGGSLRLSCAASGRIFAYYTMGWYRQAPGKEREMVAAISLSGSSTYYADSVKGRFTISRDNAKNNVYLHMNSLKPEDTAVYYCNADSYAYYSWYDYWGQGTQVTVSS | low polyreactivity
QVQLVESGGGLVQAGGSLRLSCAASGSTFGSYAMGWYRQAPGKERELVAAISGGGSTYYADSVKGRFTISRDNAKNTVYLQMNSLKPEDTAVYYCNAYWKYWRTNGPGTKYNYWGQGTQVTVSS | high polyreactivity
QVQLVESGGGLVQAGGSLRLSCAASGGTFYRYAMGWYRQAPGKERELVAAITDSGGSTYYADSVKGRFTISRDNAKNTVYLQMNSLKPEDTAVYYCAAEDIDYTDVTSGYEYWGQGTQVTVSS | high polyreactivity
QVQLVESGGGLVQAGGSLRLSCAASGSILAANAMGWYRQAPGKERELVAAIDWTGGDTYYADSVKGRFTISRDNAKNTVYLQMNSLKPEDTAVYYCAAEFVWPSIAYDVEYDYWGQGTQVTVSS | low polyreactivity
QVQLVESGGGLVQAGGSLRLSCAASGSTFYAYAMGWYRQAPGKERELVAAIRISGTSTYYADSVKGRFTISRDNAKNTVYLQMNSLKPEDSAVYYCNTLATYVAHNDYWGQGTQVTVSS | high polyreactivity
QVQLVESGGGLVQAGGSLRLSCAASGRIFWAYAMGWYRQAPGKERELVAAINGSGGSTNYADSVKGRFTISRDNAKNTVYLQMNSLIPEDTAVYYCAADWSLRLYDYWGQGTQVTVSS | low polyreactivity
QVQLVESGGRLGQAGGSLRISCAASGGTFWYYDMGWYRQAPGKERELVAAISSGGNTYYADSVKGRFTISRDNAKITVYLQMNSLKPEDTAVYYCAALPKYGSYYYYPPFDYDYWGQGTQVTVSS | low polyreactivity
QEQLQETGGGLVQAGGSLRLICASSGSIFFVYGMGWSRQAPGKERELVAGINAGTNTNYADSVRGRFTISRDNAKYTVHLQMNSLKPEDTAVYYCAADGNGYQAHEYWGQGTQVTVSS | high polyreactivity
QVQLVESGGGLVQAGGSLRLSCAASGRIFTGNVMGWYRQAPGKERELFAAISYGGGSTNYADSVKGRFTISRDNAKNTVYLQMNSLKPEDTAVYYCAAGIKRYLSYYTRYGYWGQGTQVTVSS | high polyreactivity
QVQLVESGGGLVQAGGSLRLSCAASGSIFFYYSMGWYRQAPGKERELVAAISLSGGRTYYADSVKGRSTISRDNAKNTVYLQMNSLKPEDTAVYYCNAASLSGRGQSYHYHGYDYWGQGTQVTVSS | high polyreactivity
QVQLVESGGGLVQAGGSLRLSSAASGSTFYYNSMGWYRQAPGKETELVAGITRGGSTNYADSVKGRFTISRDNAKNTVYLQMNSLKPEDSAVYYCAKRTYFRGSSGYYYWGQGTQVTVSS | high polyreactivity
QVQLVESGGGLVQAGGSLRLSCAASGRTFYEYAMGWYRQAPGKESELVASIRSGGSTFYADSVKGRFTISRDNAKYTVYLQMNSLKPEDTAVYYCAAYRVPPYRYRFARVNYWGQGTQVTVSS | high polyreactivity
HVQLVESGGGLVQAGGSLRLSCAASGSIFADNAMGWYRQAPGNERELVAAISRTGGSTYYADSVKGRFTISRDNAKNTVYLQMNSLKPEDTAVYYCAADNGYGRYRRYYYWGQGTQVTVSS | high polyreactivity
QVQLVESGGGLVQAGGSLRLSCAASGITFDYYAMGWYRQSPGKERELVAAISYSAGSTYYADSVKGRFTISRDNAKNTVYLQMNSLKPEDTAVYYCAAETFTISSDYYYWGQGTQVTVSS | low polyreactivity
QVQLVESGGGLVQAGGSLRLSCAASGFTFGVYAMGWYRQAPGKERELVATISSSGSTNYADSVKGRFTISRDNAKNTVYLQMNSLKPEDSAVYYCAVYYLYRRRQYYYWGQGTKVTVSS | low polyreactivity
QVQLVESGGGLVQGGGSLRLSCAASGRIFLRNAMGSYRQAPGKERELVATITSRGCSTYYADSVKGRFTISRDNAKNTVYLQMNSLKPEDTAVYYCAAYPEYVSGAWYDYWGQGTQVNVSS | low polyreactivity

Sequence | polyreactivity (PSR sort gate)
QVQLVESGGGLVQAGGSLRLSCAASGSTFRYNAMGWYRQAPGKERELVAAITSSGGRTYYADSVKGRFTISRDNAKKTVYLQRISLKPEDTAVYYCDAYAYYHTGDDYWGQGTQVTVSS | high polyreactivity
QVQLVESGGGLVQAGGSLRLSCAASGRTFVVYAMGWYRQAPGKERELVAAISRGGSRTYYADSVKGRFTISRDNAKNTVYLQMNSLKPEDTAVYYCAKVIPAYPDSDYNYWGQGTQVTVSS | high polyreactivity
QVQLVESGGGLVQAGGSLRLSCAATGRIISFYVMGWYRQAPGKERELVAAISLSGGSTYYADSVKGRFTNSRDNAKNTVFLQMNCLKPEDTAVYYCYAVLYARQRERWARYDYWGQGTQVTVSS | high polyreactivity
QVQLVESVGGLVQAGGSLRLSCAASGRIFTLYAMGWYRQAPGKERELVAAISWSGGSTYYADSVKGRFTISRDNAKNTVYLQMNSLKPEDTAVYYCAATWYRYYSIPRYDSWGQATQVTVSS | high polyreactivity
QVQLVESGGGLVQAGGSLRLSCAASGSTLPSNTMGWYRQAPGKERELVAAISRNGGSTYYADSVKGRFTISRDNAKNTVYLQMNSLKPEDTAVYYCNRVYRERYPYVLYGYWGQGTQVTVSS | high polyreactivity
HLQLVESGGGLVQAGGSLRLSCAASGSILNFYAMGWYRQAPGTERELVAAISSSGGSTYYADSVKGRFTISRDNAKNTVYLQMNILQPEDTAVYYCNADYSPSSDSEYGYWGQGTQVTVSS | low polyreactivity
QDQLVESGGCLVQAGGSLRLSCAASGSIFTDNVMGWYRQATGKERELVAAITSTGGNTYYADSVKGRFTISRDNAKNTVYLQMNSLKREDTAVYYCNKDVARYPYGKFDYWGQGTQVTVSS | low polyreactivity
QVQLVESGGGLVQSGGSLRLSCDASGITFKYAMGCYSQAPWKESELVAAISWSGGRTYYADSVKGRFTISRDNAKNTVYLQMNSLKPEDTAVYYCNAYRRYNDEDYWGQGTQVTVSS | high polyreactivity
QVQLVESGGGLVQAGGSLRLSCAASGRTFSLYAMGWYRQAPGKERELVAAISWGGGSTYYADSVKGRFTISRDNAKNTVYLQMNSLKPEDTAVYYCAADDVSATKYEDDYWGQGTQVTVSS | low polyreactivity
QVQLVESGGGLVQAGGSLRLSCAASGIIFYYNAMGWYRQAPGKERELVAAISSSGGSTSYADSVKGRFTISRDNAKNTVYLQMNSLKPEDTAVYYCAADSSPAYLGFVGFDYWGQGTQVTVSS | low polyreactivity
QVQLVESGGGLVQAGGSLRLSCAASGYIIDVNTMGWYRPAPGKDRELVAAITSGGTTYYADSVKGRFTISRDNAKNTVYLQMNSLKPEDTAAYYCAALWSRRRSRPSFDYWGQGTQVTVSS | high polyreactivity
QVQLVESGGGLVQAGGSLRLSCAASGFILYFNAMGWYSQAPGKERELVAAITSDGGSTYYADSVKGRFTISRDNAKNTVYLQMNSLKPEDTAVYYCAADASTWYTEEYWGQGTQVTVSS | low polyreactivity
QVQLVESGGGLVQAGGSLRLSCAASGFTFTRYTMGWYRQAPGKERELVAHITSGDSTNYADSVKGRFTISRDNAKNTVYLQKNSLKPEDTAVYYCNAEVKGFFYDYDYWGQGTQVTVSS | low polyreactivity
QVQLVESGGGFGQAGGSLRLSCAASGFTCGYYAMGWFRQAPGKERELVASISSRGGSTNYADSVKGRFTISRDHAKNTVYLQMNTMKPEDTAVYYCAAEYYRQRYEYDYWRQGTQVTVSS | high polyreactivity
QVHLVDSGGGLVQAGGSLRLSCAASGSIIVFYAMGWYRQAPGKERELVAAITDSGSTNYADSVKGRFTISRDNAKNTVYLQMNSLKPEDTAVYYCDWSYYVLRRYRVARYDSGGQGTQVTVSS | low polyreactivity
QVQLVESGGGLVQAGGSLRLSCATTGSTFQVYTMGWNRQAPGKEREFVASISWSGSSTYYADSVKGRFTISRDNAKNTVYLQMNSLKPEDTAVYYCAARARIKYLADPGYYWGQGTQVTVSS | high polyreactivity
QVQLVESGGGLVQAGGSLRLSCAASGRIFSINVMGWYRHAPGKERELVAAISKRGGSTYYADSVKGRFTISRDNAKNTVYLQMNSLKPEDTAVYYCAARRHYTYGNGPSRGGQMDYWGQGTQVTVSS | high polyreactivity
KVQVVESGGGLVQAGGSLRLSCAASGRIFGVYAMGWYRQAPGKERELVAAINYSGTRTYYADSVKGRFTISRDNAKNTVYLQMNSLKPEDSAVYYCAARRGSYSVTEYWGQGTQVTVSS | high polyreactivity
QVKLVESGGGLVQAGGSLRLRCAASGIIFDYYAMGWYRQAPGKERELVAAISKRGGSTYYADSVKGRFTISRDNAKNTVYLQMNSLKPEDTAVYYCAAVYAREAKRYDYWGQGTQVTVSS | high polyreactivity
QVQLVESGGGLVQAGGSLRLSCAASGRIFARYTMGWYRQAPGKEREFVAGIRSSGGRTYYADSVKGRFTISRDNAKNTVYLQMNSLKPEDTALYYCNAGGSWYFARYDYWGQGTQVTVSS | low polyreactivity
